One block for each molecule: values may come before it. alkaline phosphatase tag = alkaline phosphatase tag, N-terminal fusion
Key:
[1] = target: human Nogo receptor (hNgR) (human) (UniProt Q9BZR6); experiment: cell-based or functional assay
[2] = tested on: HEK293-RhoA/NgR/p75 cells; experiment: ACR (actin cytoskeletal rearrangement) assay with image analysis; type: cell-based, human
Description: 1×10^4 cells were transferred into microtiter plates with 96 wells two days before the stimulation. The cells were stimulated with a suitable reagent (e.g. LPA or AP-Nogo-66) in culture medium (RPMI-Glutamax) comprising 5% FCS. After a stimulation period of 5 to 10 minutes, the activation was stopped with cold PBS. The cells were fixed with 3-4% strength paraformaldehyde solution, permeabilized with PBS comprising 0.2% Triton X-100, and incubated with phalloidin Alexa 568 or 488 for 30-45 minutes. Incubation with DAPI additionally took place for 5 minutes for nuclear staining. The cells were visualized with the aid of an epifluorescence microscope (Axiovert 25). Fluorescence micrograms were recorded using a cooled Zeiss CCD camera.
HEK293-Rho/NgR/p75 cells were transferred into microtiter plates with 96 wells (Biocoat Poly D-Lysine Black Clear Plates from Becton Dickinson, Heidelberg, order number 356640). After a starvation period (cf. above) of 2 hours, the cells were preincubated with PI-PLC (1 U/ml) for 30 minutes or not treated. The cells were subsequently stimulated with LPA or AP-Nogo-66 or remained unstimulated. Fluorescence micrograms were obtained as described above. Representative appearances are depicted in FIG. 5b.
Fluorescence micrograms (FIG. 6a) obtained from an ACR assay carried out according to the invention (stimulation of HEK293-RhoA/NgR/p75 cells with 10 μg/ml AP-Nogo-66) were investigated with various high content screening systems, e.g. with the Atto Pathway HT image analysis system from BD Bioimages (Becton Dickinson) or the Discovery 1 from Molecular Devices, for changes in the cell morphology. […] The Pathway HT was used to determine the number of so-called cytoplasmic vertices (cytoplasmic vertices are a measure of changes in the cytoskeleton which describes inter alia the contraction of actin filaments and the formation of stress fibers). The result of this evaluation is depicted in FIG. 6c.
To analyze the reported morphological changes, 1×10^4 cells per well were seeded into 96-well plates, fixed, the actin filaments were stained with FITC-labelled Alexa Phalloidin and the nuclei were visualized with DAPI. The plates were subjected to our high-content screening (HCS) system, the Pathway HT (Becton Dickinson) and the corresponding image analysis software Attovision. Analyzing the perimeter of the actin cytoskeleton achieved the most significant difference when comparing stimulated with unstimulated samples. The perimeter of the actin cytoskeleton is calculated as “cytoplasmic verticies”, which is a measure for the number of turns or changes in direction that lines outlining the cell follow.

Rho = experiment: RBD assay (pulldown of GTP-bound Rho with GST-RBD beads, immunoblot); type: cell-based, human
Description: The HEK cells either remained unstimulated or were stimulated (e.g. with LPA or AP-Nogo-66) for a period of from 5 to 10 minutes after a 2-hour starvation period (by incubation with serum-free RPMI-Glutamax). HEK cells (1×10^6 per well) were cultured in 6-well plates (volume of mixture 1000 μl/well). Before the stimulation, a particular volume appropriate for the concentration of the AP-Nogo66 batch employed (e.g. 100 μl of medium was removed from each well and the volume was correspondingly made up again to 1000 μl with AP-Nogo66, to result in a defined final concentration of AP-Nogo66 on the cells. Following the stimulation, the AP-Nogo66 medium solution was completely removed by aspiration. The cells were then washed with ice-cold PBS (phosphate-buffered saline) and lyzed in 50 mM Tris, pH 7.5 (comprising NaCl (500 mM), EDTA (1 mM), MgCl2 […], 10% glycerol, NaF (5 mM), DTT (1 mM), 1% Nonidet P-40 in combination with the protease inhibitors PMSF (1 mM), leupeptin (1 μg/ml) and aprotinin (1 μg/ml)).
Cell lysates (e.g. from HEK293-RhoA and HEK293-RhoA/NgR/p75; 400 μg of total protein in each case) were incubated with 40 μg of the GST-RBD beads (comprising recombinant fusion protein composed of glutathione S-transferase and RBD with amino acids 7 to 89 of human rhotekin) at 4° C. for 1 hour. After the beads had been washed 3 times with lysis buffer, the bound protein (GTP-bound, biochemically active Rho) was analyzed by SDS-PAGE and immunoblotting. The immunoblotting was carried out with anti-Rho antibody and the visualization took place by incubation with a horseradish peroxidase-conjugated secondary antibody and chemiluminescence enhancer (ECL).
It was investigated, using the RBD assay described above, whether Rho is activated after stimulation of NgR with myelin proteins, such as Nogo-66, in HEK293-Rho cells which express NgR and p75 (HEK293-Rho/NgR/p75). The results are depicted in appended FIG. 5a.

NgR = target: T1, NgR (Homo sapiens, UniProt Q9BZR6); experiment: Preliminary experiments on functional activity of tagged Nogo66 ligands; conditions: not shown
T1 sequence (Q9BZR6 27-447): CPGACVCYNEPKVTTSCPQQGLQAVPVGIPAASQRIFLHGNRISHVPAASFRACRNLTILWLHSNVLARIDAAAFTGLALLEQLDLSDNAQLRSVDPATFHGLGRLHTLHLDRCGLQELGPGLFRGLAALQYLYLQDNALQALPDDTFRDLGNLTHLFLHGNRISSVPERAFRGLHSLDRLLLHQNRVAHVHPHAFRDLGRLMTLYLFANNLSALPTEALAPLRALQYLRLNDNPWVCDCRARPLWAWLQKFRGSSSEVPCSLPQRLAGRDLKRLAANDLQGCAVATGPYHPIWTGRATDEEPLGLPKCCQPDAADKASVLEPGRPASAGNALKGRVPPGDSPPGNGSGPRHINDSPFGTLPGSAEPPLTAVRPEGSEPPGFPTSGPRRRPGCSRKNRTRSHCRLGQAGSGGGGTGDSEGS

[3] = HEK293-RhoA/NgR/p75 cells, stimulated for 5 minutes

Molecule: AP-Nogo66 (Nogo-66, comprising an N-terminal alkaline phosphatase Tag) (from UniProt Q9NQC3 1055-1120) (ligand)
- maximal reduction of the average perimeter (cytoplasmic vertices) against untreated control cells, at 20 nM AP-Nogo66 [1]: 80 to 90%

Molecule: C[C@@H](N)[C@H]1CC[C@H](C(=O)Nc2ccncc2)CC1 [Y-27632, reference compound]
- inhibition of AP-Nogo66 induced Rho-dependent cell rounding and shrinkage ([2]; 15 min pre-treatment before stimulation with 20 nM AP-Nogo66): abolished AP-Nogo66 induced Rho-dependent cell rounding and shrinkage in a dose-dependent manner
- IC50 for the inhibitory effect on the actin cytoskeletal rearrangement ([2]; 15 min pre-treatment before stimulation with 20 nM AP-Nogo66, no number given): ranges in the order of magnitude of what had described for this broadly used compound

Molecule: L-alpha-lysophosphatidic acid [LPA, reference compound]
- Rho activation (Rho; [3]): rapid activation of Rho
- Rho activation (Rho; HEK wild-type cells, LPA stimulation (data not shown)): rapid activation of Rho

The next lines start with results.

- functional activity (NgR): not
B1: GST-Nogo66: otherwise tagged Nogo66 (GST tag) (protein)
chain: RIYKGVIQAIQKSDEGHPFRAYLESEVAISEELVQKYSNSALGHVNCTIKELRRLFLVDDLVDSLK
modifications: not fully specified (N-terminus); also: GST tag, end not given here (dimerising)

- functional activity (NgR): functionally active
B2: AP-Nogo66: Nogo-66, comprising an N-terminal alkaline phosphatase Tag; NgR receptor ligand (protein)
chain: {alkaline phosphatase tag}-RIYKGVIQAIQKSDEGHPFRAYLESEVAISEELVQKYSNSALGHVNCTIKELRRLFLVDDLVDSLK
modifications: not fully specified
notes: Nogo-66, comprising an N-terminal alkaline phosphatase Tag; NgR receptor ligand
- time to maximum of morphological changes ([2]; 20 nM AP-Nogo66): 15 min
- maximal reduction of the average perimeter (cytoplasmic verticies) in comparison to untreated control cells ([2]; 20 nM AP-Nogo66, 10 min stimulation, Attovision analysis): 80-90%
- time to morphological changes ([2]; 20 nM AP-Nogo66, onset of actin cytoskeletal rearrangement): ≤ 5 min
- morphological change of the cells after stimulation ([2]; 10 μg/ml AP-Nogo-66, mean cell length and cytoplasmic vertices): significant, optically analyzable morphological change
- morphological changes after PI-PLC treatment and stimulation ([2]; PI-PLC (1 U/ml) preincubation for 30 minutes): not observable
- Rho activation after release of NgR from the cell membrane (Rho; HEK293-RhoA/NgR/p75 cells treated with 1 U/ml PI-PLC 30 minutes before stimulation): no Rho activation
- Rho activation (Rho; [3]): induced Rho activity

Source: patent US20060177816A1, “Cellular RhoGTPase activation assay” (Abbott GmbH & Co. KG., priority 2005, published 2006)
